From patent US20110158908A1 (SAPPORO MEDICAL UNIVERSITY, published 2011)

T1: CSABP (cyclosporin A-binding protein), endogenous in MH14 cells (human, UniProt Q9H6S0 1-1430)
T1 construct: also called CSABP protein; CSABP molecule
T1 sequence: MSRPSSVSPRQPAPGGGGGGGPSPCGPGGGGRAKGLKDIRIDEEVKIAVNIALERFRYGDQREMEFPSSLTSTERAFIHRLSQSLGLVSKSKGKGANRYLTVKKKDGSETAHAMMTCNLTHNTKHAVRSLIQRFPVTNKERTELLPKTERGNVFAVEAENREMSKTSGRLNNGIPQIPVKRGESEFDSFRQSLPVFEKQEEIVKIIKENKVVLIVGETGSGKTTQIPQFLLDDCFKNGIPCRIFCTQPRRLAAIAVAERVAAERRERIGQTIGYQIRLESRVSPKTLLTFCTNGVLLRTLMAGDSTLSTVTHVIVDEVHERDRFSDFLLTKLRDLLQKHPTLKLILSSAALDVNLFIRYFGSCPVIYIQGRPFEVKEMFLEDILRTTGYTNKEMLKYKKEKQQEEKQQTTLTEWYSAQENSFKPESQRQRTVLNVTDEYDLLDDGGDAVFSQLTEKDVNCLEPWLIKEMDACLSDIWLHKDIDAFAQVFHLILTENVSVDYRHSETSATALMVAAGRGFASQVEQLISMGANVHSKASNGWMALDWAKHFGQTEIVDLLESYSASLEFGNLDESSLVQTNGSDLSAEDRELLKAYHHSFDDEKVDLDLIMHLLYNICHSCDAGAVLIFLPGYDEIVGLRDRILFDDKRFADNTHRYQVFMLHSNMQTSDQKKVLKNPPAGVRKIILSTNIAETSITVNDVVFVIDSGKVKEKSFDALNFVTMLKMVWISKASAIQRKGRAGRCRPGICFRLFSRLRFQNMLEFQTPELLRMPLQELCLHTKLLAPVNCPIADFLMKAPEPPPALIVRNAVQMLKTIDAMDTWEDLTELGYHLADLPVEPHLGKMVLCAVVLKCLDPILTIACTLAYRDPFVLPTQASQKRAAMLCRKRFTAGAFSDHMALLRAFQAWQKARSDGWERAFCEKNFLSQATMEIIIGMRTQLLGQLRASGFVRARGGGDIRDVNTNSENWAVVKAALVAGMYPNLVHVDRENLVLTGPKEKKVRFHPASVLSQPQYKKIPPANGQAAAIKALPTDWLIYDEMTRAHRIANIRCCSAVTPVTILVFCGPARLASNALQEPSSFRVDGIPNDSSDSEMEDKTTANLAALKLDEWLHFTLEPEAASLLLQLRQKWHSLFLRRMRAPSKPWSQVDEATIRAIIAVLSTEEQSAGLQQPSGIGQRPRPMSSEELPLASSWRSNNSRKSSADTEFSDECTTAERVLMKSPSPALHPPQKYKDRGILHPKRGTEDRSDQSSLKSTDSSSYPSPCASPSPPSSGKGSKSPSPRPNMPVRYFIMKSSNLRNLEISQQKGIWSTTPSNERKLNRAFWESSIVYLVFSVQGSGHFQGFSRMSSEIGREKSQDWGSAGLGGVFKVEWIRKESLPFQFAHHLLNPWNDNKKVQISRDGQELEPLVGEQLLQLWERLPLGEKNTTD

B1: Protein G Sepharose (other, UniProt P19909 303-497, looked up)
chain: TYKLILNGKTLKGETTTEAVDAATAEKVFKQYANDNGVDGEWTYDDATKTFTVTEKPEVIDASELTPAVTTYKLVINGKTLKGETTTEAVDAATAEKVFKQYANDNGVDGEWTYDDATKTFTVTEKPEVIDASELTPAVTTYKLVINGKTLKGETTTKAVDAETAEKAFKQYANDNGVDGVWTYDDATKTFTVTE
B2: cyclophilin B (CyPB) (enzyme)
chain: not shown

Columns and labels:
[1] = biological target: T1, CSABP (cyclosporin A-binding protein), …; experiment: Protein G Sepharose control precipitation from MH14 cell extract, western blot with anti-CSABP antibody
Protein G Sepharose = biological target: B1; experiment: Protein G Sepharose control precipitation from MH14 cell extract, western blot with anti-CyPB antibody

Binder	binding result [1]	binding result (Protein G Sepharose)
B1	no binding	–
B2	–	no binding
